According to PMC7304853:
Like-named read-outs stand apart in the source and are kept apart here. Blank lines part the entries; values can stand above or below the molecule they belong to.

Experiments:
Experiment in all cases: SPR
[1] = target: mFcγRII extracellular domain from SCID mice (ly17.2 variant), 6xHis (mouse) (UniProt P08101)
[2] = target: mFcγRII extracellular domain from NOD SCID mice (ly17.1 variant), 6xHis (mouse) (UniProt P08101)
hIgG2 #2 (human) [3] = target: hIgG2 #2 (human)
mIgG1 #1 (mouse) [4] = target: mIgG1 #1 (mouse)
hIgG1 #2 (human) [5] = target: hIgG1 #2 (human)
mIgG2a #1 (mouse) [6] = target: mIgG2a #1 (mouse)
hIgG2 #1 (human) [7] = target: hIgG2 #1 (human)
mIgG2a #2 (mouse) [8] = target: mIgG2a #2 (mouse)
mIgG1 #2 (mouse) [9] = target: mIgG1 #2 (mouse)
hIgG1 #1 (human) [10] = target: hIgG1 #1 (human)
hIgG2 #2 (human) [11] = target: hIgG2 #2 (human); remark: listed apart in the source
mIgG1 #1 (mouse) [12] = target: mIgG1 #1 (mouse); remark: listed apart in the source
hIgG1 #2 (human) [13] = target: hIgG1 #2 (human); remark: listed apart in the source
mIgG2a #1 (mouse) [14] = target: mIgG2a #1 (mouse); remark: listed apart in the source
hIgG2 #1 (human) [15] = target: hIgG2 #1 (human); remark: listed apart in the source
mIgG2a #2 (mouse) [16] = target: mIgG2a #2 (mouse); remark: listed apart in the source
mIgG1 #2 (mouse) [17] = target: mIgG1 #2 (mouse); remark: listed apart in the source
hIgG1 #1 (human) [18] = target: hIgG1 #1 (human); remark: listed apart in the source

UniProt P08101, sequence (P08101 1-207, change not shown): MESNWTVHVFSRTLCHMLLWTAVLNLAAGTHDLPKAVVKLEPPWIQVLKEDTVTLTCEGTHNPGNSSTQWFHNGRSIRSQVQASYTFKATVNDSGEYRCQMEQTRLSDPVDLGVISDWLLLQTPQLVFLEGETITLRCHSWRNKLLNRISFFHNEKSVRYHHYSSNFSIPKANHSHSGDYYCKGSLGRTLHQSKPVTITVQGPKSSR

Molecule: Cetuximab (hIgG1) (antibody)
Kd [1]: 5420 nM
Kd [2]: 4380 nM

B1: Recombinant mFcγRII (R&D systems) (receptor)
chain: THDLPKAVVKLEPPWIQVLKEDTVTLTCEGTHNPGNSSTQWFHNGRSIRSQVQASYTFKATVNDSGEYRCQMEQTRLSDPVDLGVISDWLLLQTPQLVFLEGETITLRCHSWRNKLLNRISFFHNEKSVRYHHYSSNFSIPKANHSHSGDYYCKGSLGRTLHQSKPVTITVQGPKSSRSLP
Kd (hIgG2 #2 (human) [3]): 14500 nM
Kd (mIgG1 #1 (mouse) [4]): 274 nM
Kd (hIgG1 #2 (human) [5]): 6610 nM
Kd (mIgG2a #1 (mouse) [6]): 1180 nM
Kd (hIgG2 #1 (human) [7]): 7650 nM
Kd (mIgG2a #2 (mouse) [8]): 1100 nM
Kd (mIgG1 #2 (mouse) [9]): 498 nM
Kd (hIgG1 #1 (human) [10]): 3020 nM
Kd (hIgG2 #2 (human) [11]): 218 nM
Kd (mIgG1 #1 (mouse) [12]): 2.77 nM
Kd (hIgG1 #2 (human) [13]): 79 nM
Kd (mIgG2a #1 (mouse) [14]): 23.6 nM
Kd (hIgG2 #1 (human) [15]): 210 nM
Kd (mIgG2a #2 (mouse) [16]): 24.1 nM
Kd (mIgG1 #2 (mouse) [17]): 3.62 nM
Kd (hIgG1 #1 (human) [18]): 49.2 nM

More lines, in order of falling Kd [1], values ahead:

Kd [1]: 2630 nM
Kd [2]: 2430 nM
Molecule: Rituximab mIgG2a (antibody)

Kd [1]: 2020 nM
Kd [2]: 2250 nM
Molecule: Rituximab mIgG1 (antibody)
